From the Human Domainome abundance scans (Beltran et al. 2025)
± gives the uncertainty stated by the source.

Test: abundance fitness (aPCA) (normalised: wild type 0, dead -1); higher = more abundant; growth selection in yeast, the domain comes from the species named
Conditions: Homo sapiens

Substance	abundance fitness
Lipoamide acyltransferase component of branched-chain alpha-keto acid dehydrogenase complex, mitochondrial V191L, P11182	-0.117 ± 0.047
Lipoamide acyltransferase component of branched-chain alpha-keto acid dehydrogenase complex, mitochondrial V191M, P11182	-0.075 ± 0.051
Lipoamide acyltransferase component of branched-chain alpha-keto acid dehydrogenase complex, mitochondrial V191N, P11182	-0.699 ± 0.23
Lipoamide acyltransferase component of branched-chain alpha-keto acid dehydrogenase complex, mitochondrial V191P, P11182	-0.482 ± 0.044
Lipoamide acyltransferase component of branched-chain alpha-keto acid dehydrogenase complex, mitochondrial V191Q, P11182	-0.632 ± 0.061
Lipoamide acyltransferase component of branched-chain alpha-keto acid dehydrogenase complex, mitochondrial V191R, P11182	-0.756 ± 0.045
Lipoamide acyltransferase component of branched-chain alpha-keto acid dehydrogenase complex, mitochondrial V191S, P11182	-0.593 ± 0.054
Lipoamide acyltransferase component of branched-chain alpha-keto acid dehydrogenase complex, mitochondrial V191T, P11182	-0.696 ± 0.079
Lipoamide acyltransferase component of branched-chain alpha-keto acid dehydrogenase complex, mitochondrial V191W, P11182	-0.899 ± 0.064
Lipoamide acyltransferase component of branched-chain alpha-keto acid dehydrogenase complex, mitochondrial V191Y, P11182	-0.772 ± 0.067
Lipoamide acyltransferase component of branched-chain alpha-keto acid dehydrogenase complex, mitochondrial V192A, P11182	-0.009 ± 0.045
Lipoamide acyltransferase component of branched-chain alpha-keto acid dehydrogenase complex, mitochondrial V192C, P11182	-0.017 ± 0.055
Lipoamide acyltransferase component of branched-chain alpha-keto acid dehydrogenase complex, mitochondrial V192D, P11182	-0.159 ± 0.12
Lipoamide acyltransferase component of branched-chain alpha-keto acid dehydrogenase complex, mitochondrial V192E, P11182	0.023 ± 0.045
Lipoamide acyltransferase component of branched-chain alpha-keto acid dehydrogenase complex, mitochondrial V192F, P11182	-0.31 ± 0.21
Lipoamide acyltransferase component of branched-chain alpha-keto acid dehydrogenase complex, mitochondrial V192I, P11182	-0.041 ± 0.086
Lipoamide acyltransferase component of branched-chain alpha-keto acid dehydrogenase complex, mitochondrial V192K, P11182	0.062 ± 0.046
Lipoamide acyltransferase component of branched-chain alpha-keto acid dehydrogenase complex, mitochondrial V192L, P11182	-0.068 ± 0.044
Lipoamide acyltransferase component of branched-chain alpha-keto acid dehydrogenase complex, mitochondrial V192M, P11182	-0.066 ± 0.1
Lipoamide acyltransferase component of branched-chain alpha-keto acid dehydrogenase complex, mitochondrial V192N, P11182	-0.073 ± 0.062

Substance	abundance fitness
Lipoamide acyltransferase component of branched-chain alpha-keto acid dehydrogenase complex, mitochondrial V192P, P11182	0.011 ± 0.05
Lipoamide acyltransferase component of branched-chain alpha-keto acid dehydrogenase complex, mitochondrial V192Q, P11182	-0.023 ± 0.046
Lipoamide acyltransferase component of branched-chain alpha-keto acid dehydrogenase complex, mitochondrial V192R, P11182	-0.027 ± 0.038
Lipoamide acyltransferase component of branched-chain alpha-keto acid dehydrogenase complex, mitochondrial V192S, P11182	-0.041 ± 0.053
Lipoamide acyltransferase component of branched-chain alpha-keto acid dehydrogenase complex, mitochondrial V192T, P11182	0.046 ± 0.052
Lipoamide acyltransferase component of branched-chain alpha-keto acid dehydrogenase complex, mitochondrial V192Y, P11182	-0.141 ± 0.079
Lipoamide acyltransferase component of branched-chain alpha-keto acid dehydrogenase complex, mitochondrial Y208A, P11182	0.018 ± 0.036
Lipoamide acyltransferase component of branched-chain alpha-keto acid dehydrogenase complex, mitochondrial Y208C, P11182	0.037 ± 0.092
Lipoamide acyltransferase component of branched-chain alpha-keto acid dehydrogenase complex, mitochondrial Y208D, P11182	-0.213 ± 0.06
Lipoamide acyltransferase component of branched-chain alpha-keto acid dehydrogenase complex, mitochondrial Y208E, P11182	-0.032 ± 0.041
Lipoamide acyltransferase component of branched-chain alpha-keto acid dehydrogenase complex, mitochondrial Y208F, P11182	-0.061 ± 0.084
Lipoamide acyltransferase component of branched-chain alpha-keto acid dehydrogenase complex, mitochondrial Y208G, P11182	-0.172 ± 0.036
Lipoamide acyltransferase component of branched-chain alpha-keto acid dehydrogenase complex, mitochondrial Y208H, P11182	-0.075 ± 0.097
Lipoamide acyltransferase component of branched-chain alpha-keto acid dehydrogenase complex, mitochondrial Y208I, P11182	-0.072 ± 0.063
Lipoamide acyltransferase component of branched-chain alpha-keto acid dehydrogenase complex, mitochondrial Y208K, P11182	0.051 ± 0.06
Lipoamide acyltransferase component of branched-chain alpha-keto acid dehydrogenase complex, mitochondrial Y208L, P11182	-0.032 ± 0.047
Lipoamide acyltransferase component of branched-chain alpha-keto acid dehydrogenase complex, mitochondrial Y208M, P11182	0.012 ± 0.052
Lipoamide acyltransferase component of branched-chain alpha-keto acid dehydrogenase complex, mitochondrial Y208N, P11182	-0.162 ± 0.061
Lipoamide acyltransferase component of branched-chain alpha-keto acid dehydrogenase complex, mitochondrial Y208P, P11182	-0.283 ± 0.044
Lipoamide acyltransferase component of branched-chain alpha-keto acid dehydrogenase complex, mitochondrial Y208S, P11182	-0.095 ± 0.041

Substance	abundance fitness
Lipoamide acyltransferase component of branched-chain alpha-keto acid dehydrogenase complex, mitochondrial Y208T, P11182	-0.073 ± 0.074
Lipoamide acyltransferase component of branched-chain alpha-keto acid dehydrogenase complex, mitochondrial Y208V, P11182	-0.02 ± 0.039
Lipoamide acyltransferase component of branched-chain alpha-keto acid dehydrogenase complex, mitochondrial Y208W, P11182	-0.186 ± 0.05
Nanos homolog 2 D85A, P60321	0.03 ± 0.11
Nanos homolog 2 D106A, P60321	-0.206 ± 0.098
Nanos homolog 2 H74A, P60321	-0.238 ± 0.12
Nanos homolog 2 H95Q, P60321	-0.092 ± 0.071
Nanos homolog 2 I92Y, P60321	-0.308 ± 0.14
Nanos homolog 2 K67R, P60321	-0.197 ± 0.05
Nanos homolog 2 K82R, P60321	-0.243 ± 0.069
Nanos homolog 2 K112R, P60321	-0.171 ± 0.096
Nanos homolog 2 L111K, P60321	0.292 ± 0.074
Nanos homolog 2 Q80C, P60321	0.191 ± 0.11
Nanos homolog 2 Q107R, P60321	-0.016 ± 0.12
Nanos homolog 2 R73E, P60321	0.102 ± 0.067
Nanos homolog 2 S77R, P60321	-0.003 ± 0.069
Nanos homolog 2 V87G, P60321	-0.082 ± 0.088
Nanos homolog 2 V89S, P60321	0.094 ± 0.066
Nanos homolog 2 V97I, P60321	0.008 ± 0.12
Nanos homolog 2 V100L, P60321	-0.123 ± 0.077
